Reference: PMC13076993

Experiments:
[1] = biological target: human PD-1 (programmed cell death 1) on Jurkat cells (human) (UniProt Q15116)
[2] = biological target: human PD-1 (programmed cell death 1) on Jurkat cells (human) (UniProt Q15116); remark: listed apart in the source

Sequence of UniProt Q15116 (Q15116 25-288): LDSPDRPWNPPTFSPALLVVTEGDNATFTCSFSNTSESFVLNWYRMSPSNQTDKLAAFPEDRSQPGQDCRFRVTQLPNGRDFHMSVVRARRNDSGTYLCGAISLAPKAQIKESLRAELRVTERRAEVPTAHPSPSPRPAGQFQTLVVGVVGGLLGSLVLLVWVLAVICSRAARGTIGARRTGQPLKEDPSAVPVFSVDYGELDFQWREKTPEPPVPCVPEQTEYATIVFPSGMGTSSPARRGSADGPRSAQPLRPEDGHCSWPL

Substance: human PD-L1 extracellular domain (from E. coli) (from UniProt Q9NZQ7 19-238) (ligand)
- IL-2 secretion of Jurkat cells stimulated with CO-L1 beads (CD3 antibody and PD-L1) in the presence of soluble S-PDL1 at various concentrations [1]: 100 µg/mL
- force at which the bond lifetime peaks [2]: 7 pN
